Values joined by “and” are separate entries in the source; they are usually repeats but may differ in a detail not shown here. Equal values may be shown once.
Key:
[1] = target: the molecule itself; assay: SAXS; free endophilin-A1-BAR at 2 mg/ml in buffer B (20 mM Bicine pH 9, 100 mM NaCl), 283 K; monodisperse; mass from forward scattering, Porod volume, fit with the crystallographic dimer
[2] = target: the molecule itself; assay: SAXS; free endophilin-A1-BAR at 3, 4 and 6 mg/ml in buffer B (20 mM Bicine pH 9, 100 mM NaCl), 283 K; volume fractions of dimer, tetramer and a putative helical octamer fitted with OLIGOMER

B1: Endophilin-A1-BAR (residues 1-256 of mouse endophilin-A1) (domain or fragment, UniProt Q62420 1-256, looked up)
chain: MSVAGLKKQFHKATQKVSEKVGGAEGTKLDDDFKEMERKVDVTSRAVMEIMTKTIEYLQPNPASRAKLSMINTMSKIRGQEKGPGYPQAEALLAEAMLKFGRELGDDCNFGPALGEVGEAMRELSEVKDSLDMEVKQNFIDPLQNLHDKDLREIQHHLKKLEGRRLDFDYKKKRQGKIPDEELRQALEKFDESKEIAESSMFNLLEMDIEQVSQLSALVQAQLEYHKQAVQILQQVTVRLEERIRQASSQPRREYQ
notes: endophilin-A1, mouse, residues 1-256 (BAR domain with the N-terminal amphipathic helix); calculated mass of the monomer 29 kDa; Dimeric at 2 mg/ml, higher oligomers at higher concentrations; also called endophilin-A1 BAR domain; source: E. coli BL21 codon plus, purified (Ni-chelating sepharose, Superdex 200 gel filtration)
stoichiometry N [1]: 2
stoichiometry N [2]: 4 and 8
